Measured values reported in patent US20240116985A1 (published 2024).
Starred links: 1 amine or outer side, 2 acyl side, 3 side chain; linkers in the order of their positions; H or OH if unused. Positions of bridges follow the written chain, without caps; N, C: chain ends. Non-standard residues stand in square brackets, D forms with d. Groups on a side chain read outwards from the residue. Primed or numbered codes have the meaning given here. No end group written: not given here. *: point of attachment. (4Pippip)GlnR = (S)-5-([1,4'-bipiperidin]-1'-yl)-2-amino-5-oxopentanoic acid (Gln side-chain amide with 4-piperidinopiperidine), O=C(CC[C@H](N[*:1])C(=O)[*:2])N1CCC(N2CCCCC2)CC1; (4MePpzPip)GlnR = (S)-2-amino-5-(4-(4-methylpiperazin-1-yl)piperidin-1-yl)-5-oxopentanoic acid, CN1CCN(C2CCN(C(=O)CC[C@H](N[*:1])C(=O)[*:2])CC2)CC1; (Me2NPrPip)GlnR = (S)-2-amino-5-(4-(3-(dimethylamino)propyl)piperazin-1-yl)-5-oxopentanoic acid, CN(C)CCCN1CCN(C(=O)CC[C@H](N[*:1])C(=O)[*:2])CC1; PyrS2″ = (S)-3-amino-1-((pent-4-en-1-yloxy)carbonyl)pyrrolidine-3-carboxylic acid (stapling residue), C=CCCCOC(=O)N1CC[C@@](N[*:1])(C(=O)[*:2])C1; (TfePpz)GlnR = (S)-2-amino-5-oxo-5-(4-(2,2,2-trifluoroethyl)piperazin-1-yl)pentanoic acid, O=C(CC[C@H](N[*:1])C(=O)[*:2])N1CCN(CC(F)(F)F)CC1; (RDMAPyr)GlnR = (S)-2-amino-5-((R)-3-(dimethylamino)pyrrolidin-1-yl)-5-oxopentanoic acid, CN(C)[C@@H]1CCN(C(=O)CC[C@H](N[*:1])C(=O)[*:2])C1; B5(4) = 2,2-bis(4-pentenyl)glycine = 2-amino-2-(pent-4-en-1-yl)hept-6-enoic acid (stitching residue), C=CCCCC(CCCC=C)(N[*:1])C(=O)[*:2]; B5(5) = 2,2-bis(4-pentenyl)glycine, 2-amino-2-(pent-4-en-1-yl)hept-6-enoic acid (stitching residue), C=CCCCC(CCCC=C)(N[*:1])C(=O)[*:2]; (CH2NMe2)4SEF = (S)-2-amino-3-(4-(3-(dimethylamino)prop-1-yn-1-yl)phenyl)propanoic acid, CN(C)CC#Cc1ccc(C[C@H](N[*:1])C(=O)[*:2])cc1; TfeGA = (S)-2-amino-3-((carboxymethyl)(2,2,2-trifluoroethyl)amino)propanoic acid, O=C([C@H](CN(CC(=O)[*:3])CC(F)(F)F)N[*:1])[*:2]; PyrS2 = (S)-3-amino-1-((pent-4-en-1-yloxy)carbonyl)pyrrolidine-3-carboxylic acid, C=CCCCOC(=O)N1CC[C@@](N[*:1])(C(=O)[*:2])C1; PyrS1 = (S)-3-amino-1-((but-3-en-1-yloxy)carbonyl)pyrrolidine-3-carboxylic acid, C=CCCOC(=O)N1CC[C@@](N[*:1])(C(=O)[*:2])C1; B5(19) = 2-amino-2-(pent-4-en-1-yl)hept-6-enoic acid (bis(4-pentenyl)glycine), C=CCCCC(CCCC=C)(N[*:1])C(=O)[*:2]; F2PipNva = (S)-2-amino-5-(4,4-difluoropiperidin-1-yl)pentanoic acid, O=C([C@H](CCCN1CCC(F)(F)CC1)N[*:1])[*:2]; Lithocholoyl = C[C@H](CCC(=O)*)[C@H]1CC[C@H]2[C@@H]3CC[C@@H]4C[C@H](O)CC[C@]4(C)[C@H]3CC[C@]12C; MorphAsn = (S)-2-amino-4-morpholino-4-oxobutanoic acid, O=C(C[C@H](N[*:1])C(=O)[*:2])N1CCOCC1; B5(3) = 2,2-bis(4-pentenyl)glycine (stitching residue), C=CCCCC(CCCC=C)(N[*:1])C(=O)[*:2]; Me3AdamantC = 3,5,7-trimethyladamantane-1-carbonyl, CC12CC3(C)CC(C)(C1)CC(C(=O)*)(C2)C3; Phe(4-CF3) = N[C@@H](Cc1ccc(C(F)(F)F)cc1)C(=O)O; Nva(5-morpholino) = N[C@@H](CCCN1CCOCC1)C(=O)O; Phe(3-COOH) = N[C@@H](Cc1cccc(C(=O)O)c1)C(=O)O; Phe(2-Cl) = N[C@@H](Cc1ccccc1Cl)C(=O)O; Bta = N[C@@H](Cc1csc2ccccc12)C(=O)O; αAllylPro = C=CC[C@@]1(C(=O)O)CCCN1; tBuAla = CC(C)(C)C[C@H](N)C(=O)O; 3Thi = N[C@@H](Cc1ccsc1)C(=O)O; Cba = N[C@@H](CC1CCC1)C(=O)O; S5 = C=CCCC[C@](C)(N)C(=O)O; TfeGA″ = not defined here; PEG2′ = not defined here; Aib = CC(C)(N)C(=O)O

T1: Bcat-Halo (beta-catenin HaloTag fusion expressed in HEK293 cells) (UniProt P35222 1-781)
T1 sequence (looked up): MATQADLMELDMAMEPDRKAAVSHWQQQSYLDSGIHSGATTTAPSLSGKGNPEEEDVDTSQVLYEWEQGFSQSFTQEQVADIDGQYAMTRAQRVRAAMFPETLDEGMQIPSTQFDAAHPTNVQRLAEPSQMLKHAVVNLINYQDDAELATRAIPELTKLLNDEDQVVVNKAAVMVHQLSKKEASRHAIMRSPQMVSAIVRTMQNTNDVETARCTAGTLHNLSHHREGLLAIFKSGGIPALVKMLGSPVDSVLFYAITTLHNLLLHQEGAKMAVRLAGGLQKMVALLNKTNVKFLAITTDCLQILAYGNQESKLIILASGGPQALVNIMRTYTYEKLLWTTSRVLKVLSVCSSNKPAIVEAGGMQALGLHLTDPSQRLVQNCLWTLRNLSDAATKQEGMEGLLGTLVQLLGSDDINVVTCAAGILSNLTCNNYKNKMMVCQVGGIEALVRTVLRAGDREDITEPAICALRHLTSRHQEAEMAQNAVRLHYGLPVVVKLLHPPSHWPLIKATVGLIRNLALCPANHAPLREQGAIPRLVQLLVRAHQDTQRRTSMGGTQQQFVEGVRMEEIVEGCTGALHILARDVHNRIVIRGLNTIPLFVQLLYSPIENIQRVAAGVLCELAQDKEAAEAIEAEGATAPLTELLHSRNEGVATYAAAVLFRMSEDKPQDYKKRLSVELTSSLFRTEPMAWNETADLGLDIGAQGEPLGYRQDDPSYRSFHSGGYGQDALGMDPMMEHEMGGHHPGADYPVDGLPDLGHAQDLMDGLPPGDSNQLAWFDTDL

T2: B-cat-Halo (beta-catenin HaloTag NanoBRET construct expressed in HEK293 cells) (UniProt P35222 1-781)
T2 sequence (looked up): T1 sequence (looked up)

T3: Bcat-Halo (beta-catenin HaloTag construct transfected into HEK293 cells) (UniProt P35222 1-781)
T3 sequence (looked up): T1 sequence (looked up)

T4: B-cat-Halo (beta-catenin HaloTag NanoBRET construct expressed in HEK293 cells) (UniProt P35222 1-781, HaloTag NanoBRET 618 Ligand bound in the assay)
T4 sequence (looked up): T1 sequence (looked up)

B1: I-1890 (peptide)
peptide: Ac-[αAllylPro]D[tBuAla][B5(5)]DRAAFN[PyrS2][3Thi][Bta]Q-NH2
modifications: staple 1-4, 4-11; not fully specified; printed as Ac-PL3-Asp-Npg-B5-Asp-Arg-Ala-Ala-Phe-Asn-PyrS2-3Thi-BztA-Gln-NH2
B2: I-1891 (peptide)
peptide: Ac-[αAllylPro]D[tBuAla][B5(5)]DRAAFN[PyrS2][3Thi][Bta]Q-NH2
modifications: staple 1-4, 4-11; not fully specified; printed as Ac-PL3-Asp-Npg-B5-Asp-Arg-Ala-Ala-Phe-Asn-PyrS2-3Thi-BztA-Gln-NH2
B3: I-1898 (peptide)
peptide: Ac-[αAllylPro]D[tBuAla][B5(5)]D[Phe(3-COOH)]AAFL[PyrS2][Cba][Bta]S-NH2
modifications: staple 1-4, 4-11; not fully specified; printed as Ac-PL3-Asp-Npg-B5-Asp-3COOHF-Ala-Ala-Phe-Leu-PyrS2-Cba-BztA-Ser-NH2
B4: I-1901 (peptide)
peptide: Ac-[αAllylPro]D[tBuAla][B5(5)]D[Phe(3-COOH)]SAFL[PyrS2][Phe(2-Cl)][Bta]S-NH2
modifications: staple 1-4, 4-11; not fully specified; printed as Ac-PL3-Asp-Npg-B5-Asp-3COOHF-Ser-Ala-Phe-Leu-PyrS2-2C1F-BztA-Ser-NH2
B5: I-1807 (peptide)
peptide: Ac-[αAllylPro]D[tBuAla][S5]DDAAFL[Aib][3Thi][Bta]Q-NH2
modifications: staple 1-4; not fully specified; printed as Ac-PL3-Asp-Npg-S5-Asp-Asp-Ala-Ala-Phe-Leu-Aib-3Thi-BztA-Gln-NH2
B6: I-1815 (peptide)
peptide: Ac-[αAllylPro]D[tBuAla][B5(19)]DDAAFL[PyrS1][3Thi][Bta]Q-NH2
modifications: staple 1-4, 4-11; not fully specified; printed as Ac-PL3-Asp-Npg-B5-Asp-Asp-Ala-Ala-Phe-Leu-PyrS1-3Thi-BztA-Gln-NH2
B7: I-1813 (peptide)
peptide: Ac-[αAllylPro]D[tBuAla][B5(19)]DDAAFN[PyrS1][3Thi][Bta]Q-NH2
modifications: staple 1-4, 4-11; not fully specified; printed as Ac-PL3-Asp-Npg-B5-Asp-Asp-Ala-Ala-Phe-Asn-PyrS1-3Thi-BztA-Gln-NH2

target: T1, Bcat-Halo (beta-catenin HaloTag fusion …); assay: cell-based or functional assay

Row | Binder | NanoBRET Abs IC50 [µM]
1 | Ac-[αAllylPro]D[tBuAla][B5(4)]DDAAF[Phe(4-CF3)][PyrS2][Phe(2-Cl)][Bta]Q-NH2 (staple 1-4, 4-11) [I-1369] | 9.9

target: T2, B-cat-Halo (beta-catenin HaloTag …); assay: cell-based or functional assay

Row | Binder | NanoBRET Abs IC50 [µM]
2 | B1 | > 20
3 | B2 | > 20
4 | B3 | 10.9
5 | B4 | 4.9

target: T3, Bcat-Halo (beta-catenin HaloTag …); assay: cell-based or functional assay

Row | Binder | NanoBRET Abs IC50 [µM]
6 | Ac-[αAllylPro]D[tBuAla][B5(3)]DD[Nva(5-morpholino)]AFL[PyrS2″][3Thi][Bta]Q-NH2 (staple 1-4, 4-11) [I-1481] | 39.7
7 | Ac-[αAllylPro]D[tBuAla][B5(4)]DD[(CH2NMe2)4SEF]AFL[PyrS2]F[Bta]Q (staple 1-4, 4-11) [I-1467] | 9.6
8 | Ac-[αAllylPro]D[tBuAla][B5(3)]DD[MorphAsn]AFL[PyrS2″][3Thi][Bta]Q-NH2 (staple 1-4, 4-11) [I-1483] | > 20
9 | Ac-[αAllylPro]D[tBuAla][B5(3)]DD[F2PipNva]AFL[PyrS2″][3Thi][Bta]Q-NH2 (staple 1-4, 4-11) [I-1482] | 18
10 | Ac-[αAllylPro]D[tBuAla][B5(3)]DDAAFL[PyrS2″][3Thi][Bta]QK([PEG2′-Me3AdamantC])-NH2 (staple 1-4, 4-11) [I-1480] | 9.3
11 | Ac-[αAllylPro]D[tBuAla][B5(4)]DDAK([PEG2′-Lithocholoyl])FL[PyrS2″][3Thi][Bta]Q-NH2 (staple 1-4, 4-11) [I-1474] | > 20
12 | Ac-[αAllylPro]DK([PEG2′-Me3AdamantC])[B5(4)]DDAAFL[PyrS2][3Thi][Bta]Q-NH2 (staple 1-4, 4-11) [I-1472] | > 20
13 | Ac-[αAllylPro]DK([PEG2′-Lithocholoyl])[B5(4)]DDAAFL[PyrS2][3Thi][Bta]Q-NH2 (staple 1-4, 4-11) [I-1470] | > 20
14 | Ac-[αAllylPro]D[tBuAla][B5(4)]DDAAFL[PyrS2″][3Thi][Bta]QK([PEG2′-Lithocholoyl])-NH2 (staple 1-4, 4-11) [I-1478] | 17.1
15 | Ac-[αAllylPro]DK(Me3AdamantC)[B5(4)]DDAAFL[PyrS2][3Thi][Bta]Q-NH2 (staple 1-4, 4-11) [I-1471] | > 20
16 | Ac-[αAllylPro]D[tBuAla][B5(4)]DDAK([PEG2′-Me3AdamantC])FL[PyrS2″][3Thi][Bta]Q-NH2 (staple 1-4, 4-11) [I-1476] | > 20

target: T4, B-cat-Halo (beta-catenin HaloTag …); assay: cell-based or functional assay

Row | Binder | NanoBRET Abs IC50 [µM]
17 | B5 | > 20
18 | B6 | > 20
19 | Ac-[αAllylPro]D[tBuAla][B5(3)]D[TfeGA]AAFL[PyrS2″][3Thi][Bta][(Me2NPrPip)GlnR]-NH2 (staple 1-4, 4-11; not fully specified) [I-1799] | 25.8
20 | Ac-[αAllylPro]D[tBuAla][B5(3)]D[TfeGA]AAFL[PyrS2″][3Thi][Bta][(4Pippip)GlnR]-NH2 (staple 1-4, 4-11; not fully specified) [I-1797] | 22.5
21 | Ac-[αAllylPro]D[tBuAla][B5(3)]D[TfeGA]AAFL[PyrS2″][3Thi][Bta][(RDMAPyr)GlnR]-NH2 (staple 1-4, 4-11; not fully specified) [I-1804] | 9.4
22 | Ac-[αAllylPro]D[tBuAla][B5(3)]D[TfeGA]AAFL[PyrS2″][3Thi][Bta][(RDMAPyr)GlnR]-NH2 (staple 1-4, 4-11; not fully specified) [I-1805] | 9.3
23 | Ac-[αAllylPro]D[tBuAla][B5(3)]DDAAFL[PyrS2″][3Thi][Bta]Q-NH2 (staple 1-4, 4-11; also: staple olefins reduced to -CH2-CH2-) [I-1808] | 14
24 | Ac-[αAllylPro]D[tBuAla][B5(3)]D[TfeGA]AAFL[PyrS2″][3Thi][Bta][(TfePpz)GlnR]-NH2 (staple 1-4, 4-11) [I-1803] | 7.4
25 | B7 | > 20
26 | Ac-[αAllylPro]D[tBuAla][B5(3)]D[TfeGA″]AAFL[PyrS2″][3Thi][Bta][(Me2NPrPip)GlnR]-NH2 (staple 1-4, 4-11; not fully specified; reading uncertain) [I-1800] | 25.2
27 | Ac-[αAllylPro]D[tBuAla][B5(3)]D[TfeGA″]AAFL[PyrS2″][3Thi][Bta][(4MePpzPip)GlnR]-NH2 (staple 1-4, 4-11; not fully specified; reading uncertain) [I-1802] | 25.2
28 | Ac-[αAllylPro]D[tBuAla][B5(3)]D[TfeGA]AAFL[PyrS2″][3Thi][Bta][(4MePpzPip)GlnR]-NH2 (staple 1-4, 4-11; not fully specified) [I-1801] | 17.5
